From paper PMC2198845 (The Journal of Cell Biology, 2001)

Target: the molecule itself
Assay: cross-linking

B1: endophilin NH2-terminal 125 amino acid fragment (domain or fragment, rat, UniProt O35179 1-125, looked up)
chain: MSVAGLKKQFHKATQKVSEKVGGAEGTKLDDDFKEMERKVDVTSRAVMEIMTKTIEYLQPNPASRAKLSMINTMSKIRGQEKGPGYPQAEALLAEAMLKFGRELGDDCNFGPALGEVGEAMRELS
- stoichiometry N: 2
